Test results from patent publication US20120251554A1 (TECHNISCHE UNIVERSIT T DRESDEN, published 2012).

B1: CD33-L18-GFP-L18-CD3 (bispecific antibody, part only; not given: anti-CD3 scFv, GFP, linkers, not shown: small tags and cut ends; large carriers)
chain, part: EVKLQESGPELVKPGASVKMSCKASGYKFTDYVVHWLKQKPGQGLEWIGYINPYNDGTKYNEKFKGKATLTSDKSSSTAYMEVSSLTSEDSAVYYCARDYRYEVYGMDYWGQGTSVTVSSDIVLTQSPTIMSASPGERVTMTCTASSSVNYIHWYQQKSGDSPKRWIFDTSKVASGVPARFSGSGSGTSYSLTISTMEAEDAATYYCQQWRSYPLTFGDGTRLELKRADAAPTVS
B2: anti-CD33DRB1 (antibody, V domains shown)
VH: EVKLQESGAELVRPGVSVKISCKGSGYTFTDYVLHWVKQSHAKSLEWIGLINTYNGDVRYNQKFMGKATMTIEKSSSTAYMELVRLTSEDSAIYYCARDYRYEYYAMDYWGQGTSVTVSS
VL: DIVLTQSPAIMSASPGEKVTMTCSANSSVSYIHWYQQKSGTSPKRWIFDTSKLASGVPARFSGSGSGTSYSLTISTMEAEDAATYYCQQWTSHPLTFGTGTKLQLKR
notes: Murine monoclonal antibody from a hybridoma (tested as hybridoma supernatant); also called monoclonal anti-CD33DRB1; anti-CD33DRB antibody
B3: anti-CD33DRB2 (antibody, V domains shown)
VH: EVKLQESGPELVKPGASVKMSCKASGYKFTDYVVHWLKQKPGQGLEWIGYINPYNDGTKYNEKFKGKATLTSDKSSSTAYMEVSSLTSEDSAVYYCARDYRYEVYGMDYWGQGTSVTVSS
VL: DIVLTQSPTIMSASPGERVTMTCTASSSVNYIHWYQQKSGDSPKRWIFDTSKVASGVPARFSGSGSGTSYSLTISTMEAEDAATYYCQQWRSYPLTFGDGTRLELKR
notes: Murine monoclonal antibody from a hybridoma; also called monoclonal anti-CD33DRB2; anti-CD33DRB antibody

Key:
human CD33 [1] = target: T1, human CD33 (human, UniProt P20138 18-364); experiment: cell-based or functional assay
T1 construct: whole, on cells; also called CD33+-Hek293T cells; Hek293T-CD33
T1 sequence (P20138 18-364): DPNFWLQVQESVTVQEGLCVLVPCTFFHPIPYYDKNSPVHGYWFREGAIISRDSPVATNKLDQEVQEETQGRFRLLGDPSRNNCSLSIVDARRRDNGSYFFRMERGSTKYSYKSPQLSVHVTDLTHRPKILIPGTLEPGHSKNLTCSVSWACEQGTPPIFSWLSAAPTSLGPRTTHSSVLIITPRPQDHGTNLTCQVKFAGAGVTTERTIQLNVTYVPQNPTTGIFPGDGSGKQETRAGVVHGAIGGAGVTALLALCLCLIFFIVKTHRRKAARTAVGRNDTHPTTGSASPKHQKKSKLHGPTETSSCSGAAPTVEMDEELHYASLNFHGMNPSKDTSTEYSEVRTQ

human CD33 [2] = target: T1, human CD33; experiment: method not stated (sentence refers to FIG. 3, flow cytometry)

| Binder | specific lysis of the CD33+-Hek293T cells (51Cr release assay, 20-hour in vitro culture) (human CD33 [1]) | Kd (human CD33 [2]) |
| --- | --- | --- |
| B1 | < 86% |  |
| B2 |  | ~100 pM |
| B3 |  | ~100 pM |
